Data reported in patent CN114829399A (dated 2022).

T1: 人FLT3/FLK2受体蛋白 (human, UniProt P36888 27-993)
T1 construct: whole, on cells; Always presented on cells (REH/Reh endogenous); also called CD135; 人酪氨酸激酶受体FLT3/FLK2受体蛋白
T1 sequence (looked up): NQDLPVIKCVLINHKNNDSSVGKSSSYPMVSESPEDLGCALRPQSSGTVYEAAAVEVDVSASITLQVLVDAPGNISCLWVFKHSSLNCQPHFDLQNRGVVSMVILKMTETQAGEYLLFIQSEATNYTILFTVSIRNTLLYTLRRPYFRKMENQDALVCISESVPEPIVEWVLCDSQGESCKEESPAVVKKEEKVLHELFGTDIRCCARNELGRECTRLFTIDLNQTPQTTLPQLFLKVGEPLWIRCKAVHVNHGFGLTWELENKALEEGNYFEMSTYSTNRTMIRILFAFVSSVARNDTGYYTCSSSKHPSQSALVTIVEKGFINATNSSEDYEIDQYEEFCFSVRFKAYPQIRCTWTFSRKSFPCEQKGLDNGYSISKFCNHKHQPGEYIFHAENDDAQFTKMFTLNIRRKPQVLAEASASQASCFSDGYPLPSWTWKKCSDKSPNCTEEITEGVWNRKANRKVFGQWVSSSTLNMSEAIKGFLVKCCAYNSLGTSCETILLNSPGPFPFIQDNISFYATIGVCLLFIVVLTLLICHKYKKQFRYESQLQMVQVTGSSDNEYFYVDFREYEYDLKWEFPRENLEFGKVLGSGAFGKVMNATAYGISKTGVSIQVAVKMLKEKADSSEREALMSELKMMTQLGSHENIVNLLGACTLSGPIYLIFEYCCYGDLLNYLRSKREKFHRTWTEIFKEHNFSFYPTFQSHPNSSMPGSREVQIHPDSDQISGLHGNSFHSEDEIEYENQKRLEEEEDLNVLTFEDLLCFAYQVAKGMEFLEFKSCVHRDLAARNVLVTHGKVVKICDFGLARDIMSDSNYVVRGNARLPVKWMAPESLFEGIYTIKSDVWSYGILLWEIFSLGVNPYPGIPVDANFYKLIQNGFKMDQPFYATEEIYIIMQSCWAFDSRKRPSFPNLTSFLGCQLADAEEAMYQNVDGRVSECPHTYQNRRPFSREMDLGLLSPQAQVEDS


Biological target: T1, 人FLT3/FLK2受体蛋白
Test: flow cytometry EC curve on REH cells

| Binder | binding result |
| --- | --- |
| MHC1693 - 3-16HA (antibody, V domains shown, Mouse monoclonal from hybridoma; Entries are called 'light chain' and 'heavy chain'; also called Ab3-16HA) VH: EVQLQQSGAELVRPGALVKLSCKGSGFNIKDYYIHWVKQRPEQGLEWIGRIDPENDITMYDPKFQGKASITADTSSNTAYLQLSSLTSEDTAVYYCARNGNFFAYWGQGTLVTVSA VL: not shown | binds |
| MHC1694 - 1-18BA (antibody, V domains shown, Mouse monoclonal from hybridoma; Entries are called 'light chain' and 'heavy chain'; also called Ab1-18New) VH: QVTLKESGPGILQPSQTLSLTCSFSGFSLSTSTMGVGWIRQPSGKGLEWLLHILWNDSKYYNPALKSRLTISKDTYNKQVFLKIANVDTADTATYYCARIVYYSTYVGYFDVWGAGTTVTVSS VL: DIQMTQSPSSLSASLGERVSLTCRASQEISGYLSWLQQKPDGTIKRLIYAASTLHSGVPKRFSGSRSGSDYSLTISRLESEDVADYYCLQYASYPFTFGSGTKLEIR | binds |
| MHC1692 - 1-23DA (antibody, V domains shown, Mouse monoclonal from hybridoma; also called Ab1-23DA) VH: QVTLKESGPGILQPSQTLSLTCSFSGFSLSTSTMGVGWIRQPSGKGLEWLLHILWNDSKYYNPALKSRLTISKDTYNKQVFLKIANVDTADTATYYCARIVYYSTYVGYFDVWGAGTTVTVSS VL: DIQMTQSPSSLSASLGERVSLTCRASQEISGYLSWLQQKPDGTIKRLIYAASTLHSGVPKRFSGSRSGSDYSLTISRLESEDVADYYCLQYASYPFTFGSGTKLEIR | binds |
